Test results taken from patent publication US20200048350A1 (INHIBRX BIOSCIENCES, published 2020).

T1: B7H3 (UniProt Q5ZPR3 29-534, limits assumed)
T1 construct: whole, on cells; also called CD276
T1 sequence (looked up): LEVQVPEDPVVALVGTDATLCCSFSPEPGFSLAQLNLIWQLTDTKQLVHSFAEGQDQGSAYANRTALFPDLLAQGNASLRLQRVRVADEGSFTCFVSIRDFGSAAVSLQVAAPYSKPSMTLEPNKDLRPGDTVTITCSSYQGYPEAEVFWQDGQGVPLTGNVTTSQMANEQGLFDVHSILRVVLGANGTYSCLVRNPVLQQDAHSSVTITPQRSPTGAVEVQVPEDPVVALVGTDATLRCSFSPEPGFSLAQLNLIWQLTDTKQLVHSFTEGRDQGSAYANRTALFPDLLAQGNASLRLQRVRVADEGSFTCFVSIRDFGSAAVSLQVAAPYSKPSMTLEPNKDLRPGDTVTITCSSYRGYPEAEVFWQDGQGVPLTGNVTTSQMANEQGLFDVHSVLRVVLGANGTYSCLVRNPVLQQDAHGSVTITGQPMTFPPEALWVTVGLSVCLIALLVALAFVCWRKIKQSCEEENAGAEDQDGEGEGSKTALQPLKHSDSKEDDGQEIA


Legend:
B7H3 = target: T1, B7H3; experiment: cell binding assay on A375 cells
CD3 = target: T2, CD3 (human, UniProt P07766 23-207); experiment: cell binding assay on isolated primary T cells
T2 construct: whole, on cells; CD3 is a multi-chain complex; also called CD3ε; CD3 on the surface of primary T cells
T2 sequence (P07766 23-207): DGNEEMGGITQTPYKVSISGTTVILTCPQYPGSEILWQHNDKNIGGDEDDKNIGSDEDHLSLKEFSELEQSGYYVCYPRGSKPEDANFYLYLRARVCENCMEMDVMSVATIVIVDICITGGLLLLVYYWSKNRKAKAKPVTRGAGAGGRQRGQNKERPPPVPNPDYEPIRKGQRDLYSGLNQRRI

Binder	binding result (B7H3)	binding result (CD3)
cx5187 (other, hole 91, 93 or 296, differing at the C-terminal end; the first is written; also called bivalent, bi-epitopic B7H3-targeted constrained CD3 engaging construct; Knob-VH) chain 1: EVQLVESGGGEVQPGGSLRLSCAASGFSFSSNVMMWVRQAPGKGLEWVSTIYSSGTGTFYAESVKGRFTISRDNAKNTLYLQMSSLRPEDTAVYYCATSGPVRGWGPRSQGTLVTVKPPGGGGDKTHTCPPCPAPGGPSVFLFPPKPKDTLMISRTPEVTCVVVDVSHEDPEVKFNWYVDGVEVHNAKTKPREEQYNSTYRVVSVLTVLHQDWLNGKEYKCKVSNKALPAPIEKTISKAKGQPREPQVYTLPPCRDELTKNQVSLWCLVKGFYPSDIAVEWESNGQPENNYKTTPPVLDSDGSFFLYSKLTVDKSRWQQGNVFSCSVMHEALHNHYTQKSLSLSPTGGGGGSGGGGGSGGGGGSEVQLVESGGGLVQPGGSLRLSCAASGFTFNTYAMNWVRQAPGKCLEWVARIRSKYNNYATYYADSVKGRFTISRDDAKNTLYLQMSSLRAEDTAVYYCVRHGNFGNSYVSWFAYWGQGTLVTVKPGGGGEVQLVESGGGEVQPGGSLRLSCAASGFTFSSYHMSWFRQAPGKQREPVATSHHGGTTNYAGSVKGRFTISRDNAKNTVYLQMNTLRAEDTAVYYCKADHGYQGRGYWGQGTLVTVKP chain 2: DKTHTCPPCPAPGGPSVFLFPPKPKDTLMISRTPEVTCVVVDVSHEDPEVKFNWYVDGVEVHNAKTKPREEQYNSTYRVVSVLTVLHQDWLNGKEYKCKVSNKALPAPIEKTISKAKGQPREPQVCTLPPSRDELTKNQVSLSCAVKGFYPSDIAVEWESNGQPENNYKTTPPVLDSDGSFFLVSKLTVDKSRWQQGNVFSCSVMHEALHNRYTQKSLSLSPTGGGGGSGGGGGSGGGGGSQAVVTQEPSLTVSPGGTVTLTCGSSTGAVTTSNYANWVQQKPGQAFRGLIGGTNKRAPGVPARFSGSLLGGKAALTISGAQPEDEADYYCALWYSNHWVFGCGTKLEIKGGGGEVQLLESGGGEVQPGGSLRLSCAASGFSFSINAMGWYRQAPGKRREFVAAIESGRNTVYAESVKGRFTISRDNAKNTVYLQMSSLRAEDTAVYYCGLLKGNRVVSPSVAYWGQGTLVTVKP	binds	no binding
cx5965 (other, Fc alternatives printed; first written; Short peptide linkers only 'e.g.'; also called monovalent B7H3-targeting constrained CD3 engaging construct (N-terminal sdAb)) chain 1: EVQLVESGGGEVQPGGSLRLSCAASGFSFSSNVMMWVRQAPGKGLEWVSTIYSSGTGTFYAESVKGRFTISRDNAKNTLYLQMSSLRPEDTAVYYCATSGPVRGWGPRSQGTLVTVKPPGGGGDKTHTCPPCPAPGGPSVFLFPPKPKDTLMISRTPEVTCVVVDVSHEDPEVKFNWYVDGVEVHNAKTKPREEQYNSTYRVVSVLTVLHQDWLNGKEYKCKVSNKALPAPIEKTISKAKGQPREPQVYTLPPCRDELTKNQVSLWCLVKGFYPSDIAVEWESNGQPENNYKTTPPVLDSDGSFFLYSKLTVDKSRWQQGNVFSCSVMHEALHNHYTQKSLSLSPTGGGGGSGGGGGSGGGGGSEVQLVESGGGLVQPGGSLRLSCAASGFTFNTYAMNWVRQAPGKCLEWVARIRSKYNNYATYYADSVKGRFTISRDDAKNTLYLQMSSLRAEDTAVYYCVRHGNFGNSYVSWFAYWGQGTLVTVKP chain 2: DKTHTCPPCPAPGGPSVFLFPPKPKDTLMISRTPEVTCVVVDVSHEDPEVKFNWYVDGVEVHNAKTKPREEQYNSTYRVVSVLTVLHQDWLNGKEYKCKVSNKALPAPIEKTISKAKGQPREPQVCTLPPSRDELTKNQVSLSCAVKGFYPSDIAVEWESNGQPENNYKTTPPVLDSDGSFFLVSKLTVDKSRWQQGNVFSCSVMHEALHNRYTQKSLSLSPTGGGGGSGGGGGSGGGGGSQAVVTQEPSLTVSPGGTVTLTCGSSTGAVTTSNYANWVQQKPGQAFRGLIGGTNKRAPGVPARFSGSLLGGKAALTISGAQPEDEADYYCALWYSNHWVFGCGTKLEIKGGGGEVQLLESGGGEVQPGGSLRLSCAASGFSFSINAMGWYRQAPGKRREFVAAIESGRNTVYAESVKGRFTISRDNAKNTVYLQMSSLRAEDTAVYYCGLLKGNRVVSPSVAYWGQGTLVTVKP	binds	no binding
cx5873 (other, Fc alternatives printed; first written; Short peptide linkers only 'e.g.'; also called monovalent B7H3-targeting constrained CD3 engaging construct (C-terminal sdAb)) chain 1: DKTHTCPPCPAPGGPSVFLFPPKPKDTLMISRTPEVTCVVVDVSHEDPEVKFNWYVDGVEVHNAKTKPREEQYNSTYRVVSVLTVLHQDWLNGKEYKCKVSNKALPAPIEKTISKAKGQPREPQVYTLPPCRDELTKNQVSLWCLVKGFYPSDIAVEWESNGQPENNYKTTPPVLDSDGSFFLYSKLTVDKSRWQQGNVFSCSVMHEALHNHYTQKSLSLSPTGGGGGSGGGGGSGGGGGSEVQLVESGGGLVQPGGSLRLSCAASGFTFNTYAMNWVRQAPGKCLEWVARIRSKYNNYATYYADSVKGRFTISRDDAKNTLYLQMSSLRAEDTAVYYCVRHGNFGNSYVSWFAYWGQGTLVTVKPGGGGEVQLVESGGGEVQPGGSLRLSCAASGFTFSSYHMSWFRQAPGKQREPVATSHHGGTTNYAGSVKGRFTISRDNAKNTVYLQMNTLRAEDTAVYYCKADHGYQGRGYWGQGTLVTVKP chain 2: DKTHTCPPCPAPGGPSVFLFPPKPKDTLMISRTPEVTCVVVDVSHEDPEVKFNWYVDGVEVHNAKTKPREEQYNSTYRVVSVLTVLHQDWLNGKEYKCKVSNKALPAPIEKTISKAKGQPREPQVCTLPPSRDELTKNQVSLSCAVKGFYPSDIAVEWESNGQPENNYKTTPPVLDSDGSFFLVSKLTVDKSRWQQGNVFSCSVMHEALHNRYTQKSLSLSPTGGGGGSGGGGGSGGGGGSQAVVTQEPSLTVSPGGTVTLTCGSSTGAVTTSNYANWVQQKPGQAFRGLIGGTNKRAPGVPARFSGSLLGGKAALTISGAQPEDEADYYCALWYSNHWVFGCGTKLEIKGGGGEVQLLESGGGEVQPGGSLRLSCAASGFSFSINAMGWYRQAPGKRREFVAAIESGRNTVYAESVKGRFTISRDNAKNTVYLQMSSLRAEDTAVYYCGLLKGNRVVSPSVAYWGQGTLVTVKP	binds	no binding
cx5823 (other, Short peptide linkers only 'e.g.'; also called bivalent B7H3-targeting constrained CD3 engaging construct) chain 1: EVQLVESGGGEVQPGGSLRLSCAASGFSFSSNVMMWVRQAPGKGLEWVSTIYSSGTGTFYAESVKGRFTISRDNAKNTLYLQMSSLRPEDTAVYYCATSGPVRGWGPRSQGTLVTVKPPGGGGDKTHTCPPCPAPGGPSVFLFPPKPKDTLMISRTPEVTCVVVDVSHEDPEVKFNWYVDGVEVHNAKTKPREEQYNSTYRVVSVLTVLHQDWLNGKEYKCKVSNKALPAPIEKTISKAKGQPREPQVYTLPPCRDELTKNQVSLWCLVKGFYPSDIAVEWESNGQPENNYKTTPPVLDSDGSFFLYSKLTVDKSRWQQGNVFSCSVMHEALHNHYTQKSLSLSPGGGGGGSGGGGGSGGGGGSEVQLVESGGGLVQPGGSLRLSCAASGFTFNTYAMNWVRQAPGKCLEWVARIRSKYNNYATYYADSVKGRFTISRDDAKNTLYLQMSSLRAEDTAVYYCVRHGNFGNSYVSWFAYWGQGTLVTVKPGGGGEVQLVESGGGEVQPGGSLRLSCAASGFTFSSYHMSWFRQAPGKQRELVATSHHGGTTNYAGSVKGRFTISRDNAKNTVYLQMNTLRAEDTAVYYCKADHGYQGRGYWGQGTLVTVKP chain 2: DKTHTCPPCPAPGGPSVFLFPPKPKDTLMISRTPEVTCVVVDVSHEDPEVKFNWYVDGVEVHNAKTKPREEQYNSTYRVVSVLTVLHQDWLNGKEYKCKVSNKALPAPIEKTISKAKGQPREPQVCTLPPSRDELTKNQVSLSCAVKGFYPSDIAVEWESNGQPENNYKTTPPVLDSDGSFFLVSKLTVDKSRWQQGNVFSCSVMHEALHNRYTQKSLSLSPGGGGGGSGGGGGSGGGGGSQAVVTQEPSLTVSPGGTVTLTCGSSTGAVTTSNYANWVQQKPGQAFRGLIGGTNKRAPGVPARFSGSLLGGKAALTISGAQPEDEADYYCALWYSNHWVFGCGTKLEIKGGGGEVQLLESGGGEVQPGGSLRLSCAASGFSFSINAMGWYRQAPGKRREFVAAIESGRNTVYAESVKGRFTISRDNAKNTVYLQMSSLRAEDTAVYYCGLLKGNRVVSPSVAYWGQGTLVTVKP	–	no binding
